Data published in patent US20200199204A1 (UNITED STATES OF AMERICA AS REPRESENTED BY THE SECRETARY …, published 2020).

Assays:
Assay in all cases: cell-based or functional assay
[1] = target: HIV-1 Env of CAP256.PI (HIV-1)
[2] = target: HIV-1 Env of CAP256.SU (HIV-1)
[3] = target: HIV-1 Env of 96ZM651.02 (HIV-1)
[4] = target: HIV-1 Env of CAP210.E8 (HIV-1)
[5] = target: HIV-1 Env of CAP244.D3 (HIV-1)
[6] = target: HIV-1 Env of DU156.12 (HIV-1)
[7] = target: HIV-1 Env of DU172.17 (HIV-1)
[8] = target: HIV-1 Env of DU422.01 (HIV-1)
[9] = target: HIV-1 Env of ZM109.4 (HIV-1)
[10] = target: HIV-1 Env of ZM135.10a (HIV-1)
[11] = target: HIV-1 Env of ZM197.7 (HIV-1)
[12] = target: HIV-1 Env of ZM214.15 (HIV-1)
[13] = target: HIV-1 Env of ZM249.1 (HIV-1)
[14] = target: HIV-1 Env of 0260.v5.c36 (HIV-1)
[15] = target: HIV-1 Env of BG505.w6m (HIV-1)
[16] = target: HIV-1 Env of KER2008.12 (HIV-1)
[17] = target: HIV-1 Env of MB201 (HIV-1)
[18] = target: HIV-1 Env of MB539.2B7 (HIV-1)
[19] = target: HIV-1 Env of Q168.a2 (HIV-1)
[20] = target: HIV-1 Env of Q23.17 (HIV-1)
[21] = target: HIV-1 Env of Q259.d2.17 (HIV-1)
[22] = target: HIV-1 Env of Q461.e2 (HIV-1)
[23] = target: HIV-1 Env of Q769.d22 (HIV-1)
[24] = target: HIV-1 Env of Q842.d12 (HIV-1)
[25] = target: HIV-1 Env of RW020.2 (HIV-1)
[26] = target: HIV-1 Env of UG037.8 (HIV-1)
[27] = target: HIV-1 Env of 6535.3 (HIV-1)
[28] = target: HIV-1 Env of AC10.29 (HIV-1)
[29] = target: HIV-1 Env of CAAN.A2 (HIV-1)
[30] = target: HIV-1 Env of PVO.04 (HIV-1)
[31] = target: HIV-1 Env of QH0692.42 (HIV-1)
[32] = target: HIV-1 Env of REJO.67 (HIV-1)
[33] = target: HIV-1 Env of RHPA.7 (HIV-1)
[34] = target: HIV-1 Env of SC422.8 (HIV-1)
[35] = target: HIV-1 Env of THRO.18 (HIV-1)
[36] = target: HIV-1 Env of TRJO.58 (HIV-1)
[37] = target: HIV-1 Env of TRO.11 (HIV-1)
[38] = target: HIV-1 Env of WITO.33 (HIV-1)
[39] = target: HIV-1 Env of 6405.v4.c34 (HIV-1)
[40] = target: HIV-1 Env of C1080.c3 (HIV-1)
[41] = target: HIV-1 Env of CM244.ec1 (HIV-1)
[42] = target: HIV-1 Env of CNE3 (HIV-1)
[43] = target: HIV-1 Env of TH976.17 (HIV-1)
[44] = target: Env of SIVmac251.30 (SIV (SIVmac251))

B1: CAP256-VRC26.25 (antibody, V domains shown)
VH: QVQLVESGGGVVQPGTSLRLSCAASQFRFDGYGMHWVRQAPGKGLEWVASISHDGIKKYHAEKVWGRFTISRDNSKNTLYLQMNSLRPEDTALYYCAKDLREDECEEWWSDYYDFGKQLPCAKSRGGLVGIADNWGQGTMVTVSS
VL: QSVLTQPPSVSAAPGQKVTISCSGNTSNIGNNFVSWYQQRPGRAPQLLIYETDKRPSGIPDRFSASKSGTSGTLAITGLQTGDEADYYCATWAASLSSARVFGTGTQVIVLG
Q: Which results are given for B1?
A: IC50 (neutralization, TZM-bl) [1]: 1.33 µg/mL; IC50 (neutralization, TZM-bl) [2]: 0.001 µg/mL; IC50 (neutralization, TZM-bl) [3]: 0.173 µg/mL; IC50 (neutralization, TZM-bl) [4]: 0.001 µg/mL; IC50 (neutralization, TZM-bl) [5]: > 50 µg/mL; IC50 (neutralization, TZM-bl) [6]: 0.002 µg/mL; IC50 (neutralization, TZM-bl) [7]: > 50 µg/mL; IC50 (neutralization, TZM-bl) [8]: 0.003 µg/mL; IC50 (neutralization, TZM-bl) [9]: 0.001 µg/mL; IC50 (neutralization, TZM-bl) [10]: > 50 µg/mL; IC50 (neutralization, TZM-bl) [11]: 0.002 µg/mL; IC50 (neutralization, TZM-bl) [12]: 0.006 µg/mL; IC50 (neutralization, TZM-bl) [13]: 0.001 µg/mL; IC50 (neutralization, TZM-bl) [14]: 6.54 µg/mL; IC50 (neutralization, TZM-bl) [15]: 0.001 µg/mL; IC50 (neutralization, TZM-bl) [16]: 0.005 µg/mL; IC50 (neutralization, TZM-bl) [17]: > 50 µg/mL; IC50 (neutralization, TZM-bl) [18]: 0.186 µg/mL; IC50 (neutralization, TZM-bl) [19]: 0.001 µg/mL; IC50 (neutralization, TZM-bl) [20]: 0.001 µg/mL; IC50 (neutralization, TZM-bl) [21]: 0.002 µg/mL; IC50 (neutralization, TZM-bl) [22]: 0.007 µg/mL; IC50 (neutralization, TZM-bl) [23]: > 50 µg/mL; IC50 (neutralization, TZM-bl) [24]: 0.005 µg/mL; IC50 (neutralization, TZM-bl) [25]: > 50 µg/mL; IC50 (neutralization, TZM-bl) [26]: > 50 µg/mL; IC50 (neutralization, TZM-bl) [27]: > 50 µg/mL; IC50 (neutralization, TZM-bl) [28]: 0.077 µg/mL; IC50 (neutralization, TZM-bl) [29]: > 50 µg/mL; IC50 (neutralization, TZM-bl) [30]: 0.072 µg/mL; IC50 (neutralization, TZM-bl) [31]: > 50 µg/mL; IC50 (neutralization, TZM-bl) [32]: > 50 µg/mL; IC50 (neutralization, TZM-bl) [33]: > 50 µg/mL; IC50 (neutralization, TZM-bl) [34]: 47.2 µg/mL; IC50 (neutralization, TZM-bl) [35]: 19.8 µg/mL; IC50 (neutralization, TZM-bl) [36]: > 50 µg/mL; IC50 (neutralization, TZM-bl) [37]: > 50 µg/mL; IC50 (neutralization, TZM-bl) [38]: > 50 µg/mL; IC50 (neutralization, TZM-bl) [39]: > 50 µg/mL; IC50 (neutralization, TZM-bl) [40]: 0.004 µg/mL; IC50 (neutralization, TZM-bl) [41]: 0.092 µg/mL; IC50 (neutralization, TZM-bl) [42]: > 50 µg/mL; IC50 (neutralization, TZM-bl) [43]: 0.106 µg/mL; IC50 (neutralization, TZM-bl) [44]: > 50 µg/mL
